The DeepSol protein solubility set

assay: soluble on expression in E. coli; label from the status in PepcDB or PDB records

| Sequence | soluble on expression in E. coli |
| --- | --- |
| GSAAATGPSFWLGNETLKVPLALFALNRQRLCERLRKNPAVQAGSIVVLQGGEETQRYCTDTGVLFRQESFFHWAFGVTEPGCYGVIDVDTGKSTLFVPRLPASHATWMGKIHSKEHFKEKYAVDDVQYVDEIASVLTSQKPSVLLTLRGVNTDSGSVCREASFDGISKFEVNNTILHPEIVECRVFKTDMELEVLRYTNKISSEAHREVMKAVKVGMKEYELESLFEHYCYSRGGMRHSSYTCICGSGENSAVLHYGHAGAPNDRTIQNGDMCLFDMGGEYYCFASDITCSFPANGKFTADQKAVYEAVLRSSRAVMGAMKPGVWWPDMHRLADRIHLEELAHMGILSGSVDAMVQAHLGAVFMPHGLGHFLGIDVHDVGGYPEGVERIDEPGLRSLRTARHLQPGMVLTVEPGIYFIDHLLDEALADPARASFFNREVLQRFRGFGGVRIEEDVVVTDSGIELLTCVPRTVEEIEACMAGCDKAFTPFSGPK | soluble |
| GSAAEVMKKYCSTCDISFNYVKTYLAHKQFYCKNKP | soluble |
| GSDQVQKVDQYLYHMRLSDETLLEISKRFRKEMEKGLGATTHPTAAVKMLPTFVRSTPDGTEHGEFLALDLGGTNFRVLWVKVTDNGLQKVEMENQIYAIPEDIMRGSGTQLFDHIAECLANFMDKLQIKDKKLPLGFTFSFPCHQTKLDESFLVSWTKGFKSSGVEGRDVVALIRKAIQRRGDFDIDIVAVVNDTVGTMMTCGYDDHNCEIGLIVGTGSNACYMEEMRHIDMVEGDEGRMCINMEWGAFGDDGSLNDIRTEFDQEIDMGSLNPGKQLFEKMISGMYMGELVRLILVKMAKEELLFGGKLSPELLNTGRFETKDISDIEGEKDGIRKAREVLMRLGLDPTQEDCVATHRICQIVSTRSASLCAATLAAVLQRIKENKGEERLRSTIGVDGSVYKKHPHFAKRLHKTVRRLVPGCDVRFLRSEDGSGKGAAMVTAVAYRLADQHRARQKTLEHLQLSHDQLLEVKRRMKVEMERGLSKETHASAPVKMLPTYVCATPDGTEKGDFLALDLGGTNFRVLLVRVRNGKWGGVEMHNKIYAIPQEVMHGTGDELFDHIVQCIADFLEYMGMKGVSLPLGFTFSFPCQQNSLDESILLKWTKGFKASGCEGEDVVTLLKEAIHRREEFDLDVVAVVNDTVGTMMTCGFEDPHCEVGLIVGTGSNACYMEEMRNVELVEGEEGRMCVNMEWGAFGDNGCLDDFRTEFDVAVDELSLNPGKQRFEKMISGMYLGEIVRNILIDFTKRGLLFRGRISERLKTRGIFETKFLSQIESDCLALLQVRAILQHLGLESTCDDSIIVKEVCTVVARRAAQLCGAGMAAVVDRIRENRGLDALKVTVGVDGTLYKLHPHFAKVMHETVKDLAPKCDVSFLQSEDGSGKGAALITAVACRIREAGQ | soluble |
| GSDSAITLWQFLLQLLQKPQNKHMICWTSNDGQFKLLQAEEVARLWGIRKNKPNMNYDKLSRALRYYYVKNIIKKVNGQKFVYKFVSYPEILNMDPMTVGRIEGDCESLNFSEVSSSSKDVENGGKDKPPQPGAKTSSRNDYIHSGLYSSFTLNSLN | soluble |
| GSERVNYKPGMRVLTKMSGFPWWPSMVVTESKMTSVARKSKPKRAGTFYPVIFFPNKEYLWTGSDSLTPLTSEAISQFLEKPKPKTASLIKAYKMAQSTPDLDSLSVPS | soluble |
| GSHMAIDENKQKALAAALGQIEKQFGKGSIMRLGEDRSMDVETISTGSLSLDIALGAGGLPMGRIVEIYGPESSGKTTLTLQVIAAAQREGKTCAFIDAEHALDPIYARKLGVDIDNLLCSQPDTGEQALEICDALARSGAVDVIVVDSVAALTPKAEIEGEIGDSHMGLAARMMSQAMRKLAGNLKQSNTLLIFINQIRMKIGVMFGNPETTTGGNALKFYASVRLDIRRIGAVKEGENVVGSETRVKVVKNKIAAPFKQAEFQILYGEGINFYGELVDLGVKEKLIEKAGAWYSYKGEKIGQGKANATAWLKDNPETAKEIEKKVRELLLSNPNSTPDFSVDDSEGVAETNEDF | soluble |
| GSHMASADLVSSCKDKLAYFRIKELKDILNQLGLPKQGKKQDLIDRVLALLTDEQGQRHHGWGRKNSLTKEAVAKIVDDTYRKMQIQCAPDLATRSHSGSDFSFRPIEEA | soluble |
| GSHMDLETLRARREAVLSLCARHGAVRVRVFGSVARGEAREDSDLDLLVAFEEGRTLLDHARLKLALEGLLGVRVDIVSERGLAPRLREQVLREAIPL | soluble |
| GSHMERPESELIRQSWRVVSRSPLEHGTVLFARLFALEPSLLPLFQYNGRQFSSPEDSLSSPEFLDHIRKVMLVIDAAVTNVEDLSSLEEYLTSLGRKHRAVGVRLSSFSTVGESLLYMLEKSLGPDFTPATRTAWSRLYGAVVQAMSRGWDGE | soluble |
| GSHMIASLSDSVSNAREERMALRQEQEQLQSRIQSLMQRAPVWLAAQNSLNQLSEQCGEEFTSSQDVTEYLQQLLEREREAIVERDEVGARKNAVDEEIERLSQPGGSEDQRLNALAERFGGVLLSEIYDDVSLEDAPYFSALYGPSRHAIVVPDLSQVTEHLEGLTDCPEDLYLIEGDPQSFDDSVFSVDELEKAVVVKIADRQWRYSRFPEVPLFGRAARESRIESLHAEREVLSERFATLSFDVQKTQRLHQAFSRFIGSHLAVAFESDPEAEIRQLNSRRVELERALSNHENDNQQQR | soluble |
| GSHMKHTELRAAVLDALEKHDTGATFFDGRPAVFDEADFPAVAVYLTGAEYTGEELDSDTWQAELHIEVFLPAQVPDSELDAWMESRIYPVMSDIPALSDLITSMVASGYDYRRDDDAGLWSSADLTYVITYEM | soluble |
| GSHMLGERLGIPAPRRIEAFDNSNIYGADPVSALVVFLDGKPAKKEYRKYKVKTVAGPNDYETMREVVRRRYTRVLKEGLPLPDLIIIDGGKGHLSAVRDVLENELGLDVPLAGLAKDEKHRTSELLAGDPPDVVPLDRQSQEFYLLQRIQDEVHRFAVMFHRKTRQKTMFHSVLDDIPGVGEKRKKALLNYFGSVKKMKEATVEELQRANIPRAVAEKIYEKLHE | soluble |
| GSHMNGEPDIAQLKGLSPSQRQAYAVQLKNRGNHFFTAKNFNEAIKYYQYAIELDPNEPVFYSNISACYISTGDLEKVIEFTTKALEIKPDHSKALLRRASANESLGNFTDAMFDLSVLSLNGDFDGASIEPMLERNLNKQAMKVLNENLSKDEGRGSQVLPSNTSLASFFGIFDSHLEVSSVNTSSNYDTAYALLSDALQRLYSATDEGYLVANDLLTKSTDMYHSLLSANTVDDPLRENAALALCYTGIFHFLKNNLLDAQVLLQESINLHPTPNSYIFLALTLADKENSQEFFKFFQKAVDLNPEYPPTYYHRGQMYFILQDYKNAKEDFQKAQSLNPENVYPYIQLACLLYKQGKFTESEAFFNETKLKFPTLPEVPTFFAEILTDRGDFDTAIKQYDIAKRLEEVQEKIHVGIGPLIGKATILARQSSQDPTQLDEEKFNAAIKLLTKACELDPRSEQAKIGLAQLKLQMEKIDEAIELFEDSAILARTMDEKLQATTFAEAAKIQKRLRADPIISAKMELTLARYRAKGML | soluble |
| GSHMNRFLTSIVAWLRAGYPEGIPPTDSFAVLALLCRRLSHDEVKAVANELMRLGDFDQIDIGVVITHFTDELPSPEDVERVRARLAAQGWPLDDVRDREEHA | soluble |
| GSHMPSRRMLHTMIRVGDLDRSIKFYTERLGMKVLRKWDVPEDKYTLVFLGYGPEMSSTVLELTYNYGVTSYKHDEAYGHIAIGVEDVKELVADMRKHDVPIDYEDESGFMAFVVDPDGYYIELLNEKTMMEKAEADMKEQGTA | soluble |
| GSHMQTHAARMRTFMYWPSSVPVQPEQLASAGFYYVGRNDDVKCFCCDGGLRCWESGDDPWVEHAKWFPRCEFLIRMKGQEFVDEIQGRYPHLLEQLLSTS | soluble |
| GSHMRIPATIKKKMALPPATPVFTGEKKVEETKITAAIYDEKSVEFKELEVGELESVVRSALALNKKLWIDVVGVHDESLIAKICEFLGIHPLAAEDILNTAQRVKIEDYDDHLFLVLKILLYNETLEIDQLSLVLKKNLVATFEEREYWILDSIRSRLKSGGRMRKLAGDYLAYTILDAVVDSYFEALLKISDEIEVLEDEVVSGDSTLIGKIHSLKREILAFRNAVWPLRDVLSFFTRVEHELIGEEVKVYYRDVYDHAVRLME | soluble |
| GSHMRPQGATVSLWETVQKWREYRRQCQRSLTEDPPPATDLFCNRTFDEYACWPDGEPGSFVNVSCPWYLPWASSVPQGHVYRFCTAEGLWLQKDNSSLPWRDLSECEESKRGERSSPEEQLLFLY | soluble |
| GSHMSRILAVHASPRGERSQSRRLAEVFLAAYREAHPQARVARREVGRVPLPAVTEAFVAAAFHPQPEQRSLAMQADLALSDQLVGELFDSDLLVISTPMYNFSVPSGLKAWIDQIVRLGVTFDFVLDNGVAQYRPLLRGKRALIVTSRGGHGFGPGGENQAMNHADPWLRTALGFIGIDEVTVVAAEGEESGGRSFEDSCDEAEQRLLALARSA | soluble |
| GSHMTETVPLILLVPKSRREDLEKAQLAERLRSQFFIDYGVRLPEVLLRDGEGLDDNSIVLLINEIRVEQFTVYFDLMRVVNYSDEVVSFGINPTIHQQGSSQYFWVTHEEGEKLRELGYVLRNALDELYHCLAVTLARNVNEYFGIQETKHMLDQLEAKFPDLLKEVLRHATVQRISEVLQRLLSERVSVRNMKLIMEALALWAPREKDVINLVEHIRGAMARYICHKFANGGELRAVMVSAEVEDVIRKGIRQTSGSTFLSLDPEASANLMDLITLKLDDLLIAHKDLVLLTSVDVRRFIKKMIEGRFPDLEVLSFGEIADSKSVNVIKTI | soluble |
| GSHMTGISRETSSDVALASHILTALREKQAPELSLSSQDLELVTKEDPKALAVALNWDIKKTETVQEACERELALRLQQTQSLHSLRSISASKASPPGDLQNPKRARQDPT | soluble |
| GSHMTSFLHAYFTRLHCQPLGVPTVEALRTLHLAHNCAIPFENLDVLLPREIQLDETALEEKLLYARRGGYCFELNGLFERALRDIGFNVRSLLGRVILSHPASLPPRTHRLLLVDVEDEQWIADVGFGGQTLTAPLRLQAEIAQQTPHGEYRLMQEGSTWILQFRHHEHWQSMYCFDLGVQQQSDHVMGNFWSAHWPQSHFRHHLLMCRHLPDGGKLTLTNFHFTRYHQGHAVEQVNVPDVPSLYQLLQQQFGLGVNDVKHGFTEAELAAVMAAFDTHPEAGK | soluble |
| GSHMVMNTHPYQSEAVSDVWSLSKTSMTFQPKKASLQPLTISLDELFSSRGEFISVGGNGRMSHKEAILLGLRYKKLYNQARVKYSL | soluble |
| GSHSMKYFYTSMSRPGRGQPRFIAVGYVDDTQFVRFDSDAASQRMEPRAPWVEQEGPEYWDRETRNMKTETQNAPVNLRTLLRYYNQSEAGSHTLQRMVGCDLGPDGRLLRGYEQYAYDGKDYIALNEDLRSWTAADVAAQNTQRKWEAADVAESMRAYLEGQCVEWLPRYLEKGKETLQRTDPPKTHVTHHPVSDHEATLRCWALGFYPAEITLTWQRDGEDQTQDTELVETRPAGDGTFQKWAAVVVPSGEEQRYTCHVQHEGLPKPHTLKWEPHH | soluble |
| GSMAISDPPNSSSVPLEGNGTILVKGNVTIIVEGNADITVKGDATTLVEGNQTNTVNGNLSWKVAGTVDWDVGGDWTEKMASMSSISSGQYTIDGSRIDIGSVEGYIPEAPRDGQAYVRKDGEWVFLSTFLVEHHHHHH | soluble |
| GSMAPLGGAPRLVLLFSGKRKSGKDFVTEALQSRLGADVCAVLRLSGPLKEQYAQEHGLNFQRLLDTSTYKEAFRKDMIRWGEEKRQADPGFFCRKIVEGISQPIWLVSDTRRVSDIQWFREAYGAVTQTVRVVALEQSRQQRGWVFTPGVDDAESECGLDNFGDFDWVIENHGVEQRLEEQLENLIEFIRSRLKLHHHHHH | soluble |
| GSNGMSQLPAPVSVESSWRYIDTQGQIHGPFTTQMMSQWYIGGYFASTLQISRLGSTPETLGINDIFITLGELMTKLEKYDTDPFTTFDKLHVQTTSSDS | soluble |
